In patent US20140050743A1, “BINDING PROTEINS TO INHIBITORS OF COAGULATION FACTORS” (BAYER INTELLECTUAL PROPERTY GMBH, priority 2011, published 2014):

Test: ELISA-based activity assay of antibody variants without a competition step
Format: binding
Parameters: key: +++: Variants with an average ratio above reference plus 2×SD; +/−: variants with a ratio below reference minus 2×SD; ++: All variants with a performance in between both thresholds; −: Variants with a ratio below 0.5
Details: Table 10, multiple substitutions within M14-G07, variant to reference ratio (reference 2-fold improved over wt)
Method: To determine the activity of the mutated antibody variants on compound from Example 1K an equilibrium or dissociation limited ELISA assay format was used. Briefly, MTP plates (Nunc Maxisorp black, 460518) were coated with 4 μg/ml streptavidin (Calbiochem, 189730) diluted in coating buffer (Candor Bioscience GmbH, 121500) and incubated over night at 4° C. After washing with PBST, plates were blocked with 100% Smart Block (Candor Bioscience GmbH, 113500) in PBST for 1 h at room temperature and the washing step was repeated. Plates were incubated with compound from Example 1K at varying concentrations (0.3-200 nM) for 1 h at 37° C., washed with PBST and antibody fragments were immobilized by adding 25 μl of the crude bacterial cultures for 1 h at room temperature. After washing with PBST a competition step or the immediate detection was performed. […] For the detection of the residually bound Fabs a HRP-coupled anti-lambda antibody (Sigma, A5175) diluted in 10% Smart Block in PBST was added for 1 h at room temperature. After washing 10 μM Amplex Red (Invitrogen, A12222) were added and incubated for 10 to 30 min at room temperature followed by measurement of the fluorescence signal.
Provided in Table 9 are several examples of single and/or double amino acid substitutions introduced into the heavy and/or the light chain of M14-G07 (wt). Performance of the variants was analyzed in quadruples in the ELISA without a competition step and the FXa deinhibition assay (FXa DIA). In the ELISA, averages were calculated and normalized to the respective average expression level. Overall performance of variants was evaluated by comparing the variant to wt ratio from 2-3 independent experiments. Variants with an average ratio above wt plus 2×SD (standard deviation of the ratio) were considered as improved and are marked with “++”, whereas variants with a ratio below wt minus 2×SD were considered as reduced in their binding affinity and are marked with “−”. All variants with a performance in between both thresholds are marked with “+/−”. Variants with average fluorescence counts below the negative control (non-expressing cells) plus 3×SD were considered as non-binding and marked with “−−” with none of the variants fulfilling this criteria. In the FXa deinhibition assay averages were calculated and overall performance of variants was evaluated by comparing the variant to wt ratio from 2-3 independent experiments. Variants with an average ratio above wt plus 2×SD were considered as improved and are marked with “++”, whereas variants with a ratio below wt minus 2×SD were considered as either reduced in their binding affinity or non-binding and are marked with “−−”. All variants with a performance in between both thresholds are marked with “+/−”. Variants not analyzed are marked with “nd” (not determined). CDRs were defined according to Kabat.
Provided in Table 10 are examples of combined amino acid substitutions within M14-G07 antibodies. While not every combination is provided in Table 10, it is contemplated that the anti-rivaroxaban antibody may comprise any combination of modifications provided. Variant performance was analyzed in quadruples in the ELISA without a competition step. Averages were calculated, average background signals determined on a streptavidin coated plate without compound from Example 1K were subtracted if the compound from Example 1K concentration used for coating was below 10 nM and signals were normalized to the respective average expression level. Overall performance of variants was evaluated by comparing the variant to reference ratio from 2-3 independent experiments using a 2-fold improved reference variant as compared to wt. Variants with an average ratio above reference plus 2×SD are marked with “+++”, whereas variants with a ratio below reference minus 2×SD are marked with “+/−”. All variants with a performance in between both thresholds are marked with “++”. […]

Molecule | ELISA
M14-G07-3: antibody, Vh SEQ ID NO: 131, Vl SEQ ID NO: 132 (antibody, listed as Homo Sapiens, V domains shown) VH: EVQLLESGGGLVQPGGSLRLSCAASGFTFSSYAMSWVRQAPGKGLEWVSGISGSGGSTYYADSVKGRFTISRDNSKNTLYLQMNSLRAEDTAVYYCARQGRTSFYLDVWGQGTLVTVSS VL: QSVLTQPPSASGTPGQRVTISCSGSSRNIGSYYVYWYQQLPGTAPKLLIYDNRQRPSGVPDRFSGSKSGTSASLAISGLRSEDEADYYCVAWDDSWSGTWVFGGGTKLTVL | +++
M14-G07-14: antibody, Vh SEQ ID NO: 153, Vl SEQ ID NO: 154 (antibody, listed as Homo Sapiens, V domains shown) VH: EVQLLESGGGLVQPGGSLRLSCAASGFTFSSYAMSWVRQAPGKGLEWVGGISGSGGSTYYADSVKGRFTISRDNSKNTLYLQMNSLRAEDTAVYYCARQGRTSFYLDVWGQGTLVTVSS VL: QSVLTQPPSASGTPGQRVTISCSGSSRNIGSYYVYWYQQLPGTAPKLLIYDNRQRPSGVPDRFSGSKSGTSASLAISGLRSEDEADYYCVAWDDSYSGTWVFGGGTKLTVL | +++
M14-G07-8: antibody, Vh SEQ ID NO: 141, Vl SEQ ID NO: 142 (antibody, listed as Homo Sapiens, V domains shown) VH: EVQLLESGGGLVQPGGSLRLSCAASGFTFSSYAMSWVRQAPGKGLEWVGGISGSGGSTYYADSVKGRFTISRDNSKNTLYLQMNSLRAEDTAVYYCARQGRTSFYLDVWGQGTLVTVSS VL: QSVLTQPPSASGTPGQRVTISCSGSSRNIGAFYVYWYQQLPGTAPKLLIYDNRQRPSGVPDRFSGSKSGTSASLAISGLRSEDEADYYCVAWDDSYSGTWVFGGGTKLTVL | +++
M14-G07-5: antibody, Vh SEQ ID NO: 135, Vl SEQ ID NO: 136 (antibody, listed as Homo Sapiens, V domains shown) VH: EVQLLESGGGLVQPGGSLRLSCAASGFRFSSYAMSWVRQAPGKGLEWVSGISGSGGSTYYADSVKGRFTISRDNSKNTLYLQMNSLRAEDTAVYYCARQGRTSFYLDVWGQGTLVTVSS VL: QSVLTQPPSASGTPGQRVTISCSGSSRNIGSYYVYWYQQLPGTAPKLLIYDNRQRPSGVPDRFSGSKSGTSASLAISGLRSEDEADYYCVAWDDSYSGTWVFGGGTKLTVL | +++
M14-G07-15: antibody, Vh SEQ ID NO: 155, Vl SEQ ID NO: 156 (antibody, listed as Homo Sapiens, V domains shown) VH: EVQLLESGGGLVQPGGSLRLSCAASGFTFSSYAMSWVRQAPGKGLEWVGGISGSGGSTYYADSVKGRFTISRDNSKNTLYLQMNSLRAEDTAVYYCARQGRTSFYLDVWGQGTLVTVSS VL: QSVLTQPPSASGTPGQRVTISCSGSSSNIGSYYVYWYQQLPGTAPKLLIYDNNQRPSGVPDRFSGSKSGTSASLAISGLRSEDEADYYCVAWDDSWSGHWVFGGGTKLTVL | +++
M14-G07-10: antibody, Vh SEQ ID NO: 145, Vl SEQ ID NO: 146 (antibody, listed as Homo Sapiens, V domains shown) VH: EVQLLESGGGLVQPGGSLRLSCAASGFTFSSYAMSWVRQAPGKGLEWVGGISGSGGSTYYADSVKGRFTISRDNSKNTLYLQMNSLRAEDTAVYYCARQGRTSFYLDVWGQGTLVTVSS VL: QSVLTQPPSASGTPGQRVTISCSGSSRNIGSFYVYWYQQLPGTAPKLLIYDNNQRPSGVPDRFSGSKSGTSASLAISGLRSEDEADYYCVAWDDSWSGHWVFGGGTKLTVL | +++
M14-G07-4: antibody, Vh SEQ ID NO: 133, Vl SEQ ID NO: 134 (antibody, listed as Homo Sapiens, V domains shown) VH: EVQLLESGGGLVQPGGSLRLSCAASGFRFSSYAMSWVRQAPGKGLEWVGGISGSGGSTYYADSVKGRFTISRDNSKNTLYLQMNSLRAEDTAVYYCARQGRTSFYLDVWGQGTLVTVSS VL: QSVLTQPPSASGTPGQRVTISCSGSSRNIGAYYVYWYQQLPGTAPKLLIYDNRQRPSGVPDRFSGSKSGTSASLAISGLRSEDEADYYCVAWDDSYSGTWVFGGGTKLTVL | +++
M14-G07-6: antibody, Vh SEQ ID NO: 137, Vl SEQ ID NO: 138 (antibody, listed as Homo Sapiens, V domains shown) VH: EVQLLESGGGLVQPGGSLRLSCAASGFRFSSYAMSWIRQAPGKGLEWVGGISGSGGSTYYADSVKGRFTISRDNSKNTLYLQMNSLRAEDTAVYYCARQGRTSFYLDVWGQGTLVTVSS VL: QSVLTQPPSASGTPGQRVTISCSGSSRNIGSYYVYWYQQLPGTAPKLLIYDNRQRPSGVPDRFSGSKSGTSASLAISGLRSEDEADYYCVAWDDSYSGTWVFGGGTKLTVL | +++
M14-G07-7: antibody, Vh SEQ ID NO: 139, Vl SEQ ID NO: 140 (antibody, listed as Homo Sapiens, V domains shown) VH: EVQLLESGGGLVQPGGSLRLSCAASGFRFSSYAMSWVRQAPGKGLEWVGGISGSGGSTYYADSVKGRFTISRDNSKNTLYLQMNSLRAEDTAVYYCARQGRTSFYLDVWGQGTLVTVSS VL: QSVLTQPPSASGTPGQRVTISCSGSSRNIGSYYVYWYQQLPGTAPKLLIYDNNQRPSGVPDRFSGSKSGTSASLAISGLRSEDEADYYCVAWDDSWSGHWVFGGGTKLTVL | +++
M14-G07-12: antibody, Vh SEQ ID NO: 149, Vl SEQ ID NO: 150 (antibody, listed as Homo Sapiens, V domains shown) VH: EVQLLESGGGLVQPGGSLRLSCAASGFTFSSYAMSWVRQAPGKGLEWVSGISGSGGSTYYADSVKGRFTISRDNSKNTLYLQMNSLRAEDTAVYYCARQGRTSFYLDVWGQGTLVTVSS VL: QSVLTQPPSASGTPGQRVTISCSGSSRNIGSYYVYWYQQLPGTAPKLLIYDNNQRPSGVPDRFSGSKSGTSASLAISGLRSEDEADYYCVAWDDSWSGTWVFGGGTKLTVL | +++
M14-G07-9: antibody, Vh SEQ ID NO: 143, Vl SEQ ID NO: 144 (antibody, listed as Homo Sapiens, V domains shown) VH: EVQLLESGGGLVQPGGSLRLSCAASGFRFSSYAMSWVRQAPGKGLEWVGGISGSGGSTYYADSVKGRFTISRDNSKNTLYLQMNSLRAEDTAVYYCARQGRTSFYLDVWGQGTLVTVSS VL: QSVLTQPPSASGTPGQRVTISCSGSSRNIGSFYVYWYQQLPGTAPKLLIYDNNQRPSGVPDRFSGSKSGTSASLAISGLRSEDEADYYCVAWDVSLSGHWVFGGGTKLTVL | +++
M14-G07-11: antibody, Vh SEQ ID NO: 147, Vl SEQ ID NO: 148 (antibody, listed as Homo Sapiens, V domains shown) VH: EVQLLESGGGLVQPGGSLRLSCAASGFRFSSYAMSWVRQAPGKGLEWVGGISGSGGSTYYADSVKGRFTISRDNSKNTLYLQMNSLRAEDTAVYYCARQGRTSFYLDVWGQGTLVTVSS VL: QSVLTQPPSASGTPGQRVTISCSGSSRNIGAFYVYWYQQLPGTAPKLLIYDNRQRPSGVPDRFSGSKSGTSASLAISGLRSEDEADYYCVAWDDSWSGHWVFGGGTKLTVL | +++
M14-G07-13: antibody, Vh SEQ ID NO: 151, Vl SEQ ID NO: 152 (antibody, listed as Homo Sapiens, V domains shown) VH: EVQLLESGGGLVQPGGSLRLSCAASGFTFSSYAMSWVRQAPGKGLEWVGGISGSGGSTYYADSVKGRFTISRDNSKNTLYLQMNSLRAEDTAVYYCARQGRTSFYLDVWGQGTLVTVSS VL: QSVLTQPPSASGTPGQRVTISCSGSSRNIGSFYVYWYQQLPGTAPKLLIYDNRQRPSGVPDRFSGSKSGTSASLAISGLRSEDEADYYCVAWDDSWSGTWVFGGGTKLTVL | +++
